From the Human Domainome abundance scans (Beltran et al. 2025)
± gives the uncertainty stated by the source.

B1: Histone H1t, residues 44 to 112; numbered along this chain, P22492 (parent)
chain: VSKLITEALSVSQERVGMSLVALKKALAAAGYDVEKNNSRIKLSLKSLVNKGILVQTRGTGASGSFKLS

Variants of: B1
Experiment: abundance fitness (aPCA) (normalised: wild type 0, dead -1); higher = more abundant; growth selection in yeast, the domain comes from the species named
Conditions: Homo sapiens

Variant	abundance fitness
VSKLITEALSVSQERVGMSLVALKKALAAAGYDVEKNNSRIKLSLKSLVNKGILVQIRGTGASGSFKLS [T57I]	-0.147 ± 0.049
VSKLITEALSVSQERVGMSLVALKKALAAAGYDVEKNNSRIKLSLKSLVNKGILVQLRGTGASGSFKLS [T57L]	-0.026 ± 0.026
VSKLITEALSVSQERVGMSLVALKKALAAAGYDVEKNNSRIKLSLKSLVNKGILVQFRGTGASGSFKLS [T57F]	-0.14 ± 0.04
VSKLITEALSVSQERVGMSLVALKKALAAAGYDVEKNNSRIKLSLKSLVNKGILVQGRGTGASGSFKLS [T57G]	-0.102 ± 0.063
VSKLITEALSVSQERVGMSLVALKKALAAAGYDVEKNNSRIKLSLKSLVNKGILVQARGTGASGSFKLS [T57A]	0.024 ± 0.044
VSKLITEALSVSQERVGMSLVALKKALAAAGYDVEKNNSRIKLSLKSLVNKGILVQCRGTGASGSFKLS [T57C]	-0.019 ± 0.047
VSKLITEALSVSQERVGMSLVALKKALAAAGYDVEKNNSRIKLSLKSLVNKGILVQERGTGASGSFKLS [T57E]	0.117 ± 0.084
VSKLITEALSVSQERVGMSLVALKKALAAAGYDVEKNNSRIKLSLKSLVNKGILVQKRGTGASGSFKLS [T57K]	-0.011 ± 0.045
VSKLITEALSVSQERVGMSLVALKKALAAAGYDVEKNNSRIKLSLKSLVNKGIRVQTRGTGASGSFKLS [L54R]	0.168 ± 0.25
VSKLITEALSVSQERVGMSLVALKKALAAAGYDVEKNNSRIKLSLKSLVNKGIIVQTRGTGASGSFKLS [L54I]	0.197 ± 0.094
VSKLITEALSVSQERVGMSLVALKKALAAAGYDVEKNNSRIKLSLKSLVNKGIPVQTRGTGASGSFKLS [L54P]	-0.083 ± 0.08
VSKLITEALSVSQERVGMSLVALKKALAAAGYDVEKNNSRIKLSLKSLVNKGIHVQTRGTGASGSFKLS [L54H]	-0.325 ± 0.12
VSKLITEALSVSQERVGMSLVALKKALAAAGYDVEKNNSRIKLSLKSLVNKGIVVQTRGTGASGSFKLS [L54V]	0.158 ± 0.14
VSKLITEALSVSQERVGMSLVALKKALAAAGYDVEKNNSRIKLSLKSLVNKGIKVQTRGTGASGSFKLS [L54K]	-0.087 ± 0.14
VSKLITEALSVSQERVGMSLVALKKALAAAGYDVEKNNSRIKLSLKSLVNKGIMVQTRGTGASGSFKLS [L54M]	0.062 ± 0.16
VSKLITEALSVSQERVGMSLVALKKALAAAGYDVEKNNSRIKLSLKSLVNKGITVQTRGTGASGSFKLS [L54T]	-0.246 ± 0.1
VSKLITEALSVSQERVGMSLVALKKALAAAGYDVEKNNSRIKLSLKSLVNKGIQVQTRGTGASGSFKLS [L54Q]	0.092 ± 0.16
VSKLITEALSVSQERVGMSLVALKKALAAAGYDVEKNNSRIKLSLKSLVNKGIFVQTRGTGASGSFKLS [L54F]	-0.036 ± 0.049
VSKLITEALSVSQERVGMSLVALKKALAAAGYDVEKNNSRIKLSLKSLVNKGIYVQTRGTGASGSFKLS [L54Y]	-0.311 ± 0.071
VSKLITEALSVSQERVGMSLVALKKALAAAGYDVEKNNSRIKLSLKSLVNKGIAVQTRGTGASGSFKLS [L54A]	-0.3 ± 0.25

Variant	abundance fitness
VSKLITEALSVSQERVGMSLVALKKALAAAGYDVEKNNSRIKLSLKSLVNKGISVQTRGTGASGSFKLS [L54S]	-0.047 ± 0.11
VSKLITEALSVSQERVGMSLVALKKALAAAGYDVEKNNSRIKLSLKSLVNKGINVQTRGTGASGSFKLS [L54N]	-0.249 ± 0.095
VSKLITEALSVSQERVGMSLVALKKALAAAGYDVEKNNSRIKLSLKSLVNKGILSQTRGTGASGSFKLS [V55S]	0.071 ± 0.038
VSKLITEALSVSQERVGMSLVALKKALAAAGYDVEKNNSRIKLSLKSLVNKGILGQTRGTGASGSFKLS [V55G]	0.056 ± 0.069
VSKLITEALSVSQERVGMSLVALKKALAAAGYDVEKNNSRIKLSLKSLVNKGILMQTRGTGASGSFKLS [V55M]	0.002 ± 0.035
VSKLITEALSVSQERVGMSLVALKKALAAAGYDVEKNNSRIKLSLKSLVNKGILAQTRGTGASGSFKLS [V55A]	-0.106 ± 0.064
VSKLITEALSVSQERVGMSLVALKKALAAAGYDVEKNNSRIKLSLKSLVNKGILTQTRGTGASGSFKLS [V55T]	0.062 ± 0.053
VSKLITEALSVSQERVGMSLVALKKALAAAGYDVEKNNSRIKLSLKSLVNKGILNQTRGTGASGSFKLS [V55N]	-0.102 ± 0.079
VSKLITEALSVSQERVGMSLVALKKALAAAGYDVEKNNSRIKLSLKSLVNKGILIQTRGTGASGSFKLS [V55I]	-0.079 ± 0.049
VSKLITEALSVSQERVGMSLVALKKALAAAGYDVEKNNSRIKLSLKSLVNKGILCQTRGTGASGSFKLS [V55C]	-0.077 ± 0.1
VSKLITEALSVSQERVGMSLVALKKALAAAGYDVEKNNSRIKLSLKSLVNKGILHQTRGTGASGSFKLS [V55H]	-0.08 ± 0.1
VSKLITEALSVSQERVGMSLVALKKALAAAGYDVEKNNSRIKLSLKSLVNKGILLQTRGTGASGSFKLS [V55L]	-0.056 ± 0.028
VSKLITEALSVSQERVGMSLVALKKALAAAGYDVEKNNSRIKLSLKSLVNKGILEQTRGTGASGSFKLS [V55E]	0.027 ± 0.096
VSKLITEALSVSQERVGMSLVALKKALAAAGYDVEKNNSRIKLSLKSLVNKGILWQTRGTGASGSFKLS [V55W]	-0.297 ± 0.063
VSKLITEALSVSQERVGMSLVALKKALAAAGYDVEKNNSRIKLSLKSLVNKGILPQTRGTGASGSFKLS [V55P]	-0.163 ± 0.062
VSKLITEALSVSQERVGMSLVALKKALAAAGYDVEKNNSRIKLSLKSLVNKGILQQTRGTGASGSFKLS [V55Q]	-0.127 ± 0.056
VSKLITEALSVSQERVGMSLVALKKALAAAGYDVEKNNSRIKLSLKSLVNKGILYQTRGTGASGSFKLS [V55Y]	-0.15 ± 0.059
VSKLITEALSVSQERVGMSLVALKKALAAAGYDVEKNNSRIKLSLKSLVNKGILDQTRGTGASGSFKLS [V55D]	-0.291 ± 0.11
VSKLITEALSVSQERVGMSLVALKKALAAAGYDVEKNNSRIKLSLKSLVNKGILFQTRGTGASGSFKLS [V55F]	-0.114 ± 0.036
